# Reference: patent US20260028406A1
# Key:
# [1] = target: purified human tenascin C protein (human) (UniProt P24821); assay: BLI (biolayer interferometry); format not described
# [2] = target: EIIIB domain of fibronectin; assay: as above
# [3] = target: purified human tenascin C protein (human) (UniProt P24821); assay: ELISA, plates coated with 3 ug/ml purified human TNC, increasing VHH concentration
# purified human tenascin C protein (human), sequence (P24821 23-2201): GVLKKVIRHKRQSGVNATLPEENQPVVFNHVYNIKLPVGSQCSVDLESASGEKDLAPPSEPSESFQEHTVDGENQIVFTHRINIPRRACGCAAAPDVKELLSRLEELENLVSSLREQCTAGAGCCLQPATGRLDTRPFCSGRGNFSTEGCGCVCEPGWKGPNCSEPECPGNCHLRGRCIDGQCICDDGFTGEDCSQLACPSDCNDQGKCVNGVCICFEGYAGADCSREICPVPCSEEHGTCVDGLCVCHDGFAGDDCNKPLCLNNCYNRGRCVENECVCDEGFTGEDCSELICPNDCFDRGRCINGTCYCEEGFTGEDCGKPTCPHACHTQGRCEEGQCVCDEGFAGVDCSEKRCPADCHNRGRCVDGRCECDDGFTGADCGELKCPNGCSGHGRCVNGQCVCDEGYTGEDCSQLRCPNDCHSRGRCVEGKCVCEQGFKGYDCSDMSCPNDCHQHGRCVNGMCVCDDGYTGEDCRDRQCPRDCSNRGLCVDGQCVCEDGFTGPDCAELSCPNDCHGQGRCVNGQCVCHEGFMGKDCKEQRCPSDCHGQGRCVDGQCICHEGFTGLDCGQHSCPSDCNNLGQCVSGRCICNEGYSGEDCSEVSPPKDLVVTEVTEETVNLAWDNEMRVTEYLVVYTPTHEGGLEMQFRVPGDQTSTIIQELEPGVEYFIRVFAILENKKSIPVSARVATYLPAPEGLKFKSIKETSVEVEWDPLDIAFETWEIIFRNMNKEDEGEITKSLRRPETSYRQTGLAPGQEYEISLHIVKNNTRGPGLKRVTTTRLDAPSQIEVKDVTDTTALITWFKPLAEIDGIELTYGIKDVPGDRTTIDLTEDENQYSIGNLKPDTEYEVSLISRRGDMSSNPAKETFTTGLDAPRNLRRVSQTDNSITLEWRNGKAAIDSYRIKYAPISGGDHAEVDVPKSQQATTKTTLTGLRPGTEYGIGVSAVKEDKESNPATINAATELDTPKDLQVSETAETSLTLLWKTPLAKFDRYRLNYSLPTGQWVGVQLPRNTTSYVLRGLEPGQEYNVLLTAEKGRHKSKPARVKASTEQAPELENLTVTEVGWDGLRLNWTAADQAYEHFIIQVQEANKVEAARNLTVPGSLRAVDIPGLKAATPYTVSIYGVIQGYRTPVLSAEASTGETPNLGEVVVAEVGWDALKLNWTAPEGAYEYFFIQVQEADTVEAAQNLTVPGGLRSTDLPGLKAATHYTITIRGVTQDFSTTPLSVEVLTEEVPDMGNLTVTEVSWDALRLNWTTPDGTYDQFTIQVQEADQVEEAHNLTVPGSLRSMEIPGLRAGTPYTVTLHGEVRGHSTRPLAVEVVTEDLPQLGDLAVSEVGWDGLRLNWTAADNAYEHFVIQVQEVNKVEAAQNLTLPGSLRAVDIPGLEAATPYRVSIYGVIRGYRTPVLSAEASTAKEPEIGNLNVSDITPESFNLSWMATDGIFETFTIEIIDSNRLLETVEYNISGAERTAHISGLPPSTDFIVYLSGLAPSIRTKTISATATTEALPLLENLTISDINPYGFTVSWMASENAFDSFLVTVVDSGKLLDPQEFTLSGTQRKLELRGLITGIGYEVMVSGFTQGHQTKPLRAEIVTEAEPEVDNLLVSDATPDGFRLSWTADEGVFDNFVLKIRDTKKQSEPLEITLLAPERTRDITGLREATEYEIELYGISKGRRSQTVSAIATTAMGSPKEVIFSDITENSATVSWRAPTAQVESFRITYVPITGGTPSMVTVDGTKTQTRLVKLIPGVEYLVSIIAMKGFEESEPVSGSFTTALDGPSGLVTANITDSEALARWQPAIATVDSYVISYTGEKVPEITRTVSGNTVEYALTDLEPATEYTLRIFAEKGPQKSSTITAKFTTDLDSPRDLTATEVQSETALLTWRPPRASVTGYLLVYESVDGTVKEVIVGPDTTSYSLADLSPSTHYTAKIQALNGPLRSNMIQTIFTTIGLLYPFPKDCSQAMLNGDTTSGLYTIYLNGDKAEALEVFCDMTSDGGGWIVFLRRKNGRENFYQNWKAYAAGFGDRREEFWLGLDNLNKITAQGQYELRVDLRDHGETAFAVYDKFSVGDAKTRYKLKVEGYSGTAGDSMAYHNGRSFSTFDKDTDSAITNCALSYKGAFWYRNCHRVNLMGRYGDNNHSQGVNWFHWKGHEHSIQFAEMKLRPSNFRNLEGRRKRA
# EIIIB domain of fibronectin, sequence (P02751 1271-1359): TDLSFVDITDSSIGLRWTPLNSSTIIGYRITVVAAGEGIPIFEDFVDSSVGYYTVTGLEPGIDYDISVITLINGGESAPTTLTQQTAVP
Binder,Kd [1] [pM],Kd [2] [pM],EC50 (read off the curve) [3] [ng/mL]
NJB2 nanobody (VHH) (VHH) VHH: QVQLVETGGGLVQAGGSLRLSCAASGSTFSHNAGGWYRQAPEKQRELVAGISSDGNINYADSVKDRFTISRDNASNTMYLQMNNLKPEDTAVYVCNIRGSYGNTYYSRWGQGTQVTVSS,–,4000,–
NJT3 nanobody (VHH) (VHH) VHH: QVQLVETGGGLAQAGGSLRLSCAASGRTLSGYAMGWFRQAPGKEREFVAAISWSGRNTYYDYTVQGRFTISKDNAKNTVNLQMNSLKPEDTAVYYCAVSRSLDEFGDGYEMDYWGDGTQVTVSS,< 1,–,0.02

# Other lines, results leading:
Kd [1] [pM],Kd [2] [pM],EC50 (read off the curve) [3] [ng/mL],Binder
< 1,–,–,NJT4 nanobody (VHH) (VHH) VHH: QVQLVESGGGLVQPGGSLRLSCAASGFTFSSYTMRWYRQAPGKERELVAFIGVAGGSTKYADSVKGRFTISRDNTKNTVYLQMNTLKPEDTAVYYCYAPLTPYWGQGTQVTVSS
< 1,–,0.01,NJT6 nanobody (VHH) (VHH) VHH: QVQLVETGGDLVQPGGSLRLSCAASGLTLDYYAIGWVRQAPGKEREGVSCITPQDGNTYYDDSVMGRFTILRDNAKNMVYLQMNNLKPEDTAVYFCAAAGALTLDPSEYEYWGQGTQVTVSS
